Here are results for eleven molecules from patent EP4806514A2 (Lepu Biopharma Co., Ltd., dated 2025).

B1: 29D2D7-z19p3 (antibody, V domains shown)
VH: QVQLVQSGAEVKKPGASVKVSCKASGYTFTDYDMHWVKQAPGQGLEWIGGFDPESAGTVYNLRFKDKATLTADKSTSTAYMELRSLRSEDTAVYYCARKGYYSVSSPFTYWGQGTLVTVSS
VL: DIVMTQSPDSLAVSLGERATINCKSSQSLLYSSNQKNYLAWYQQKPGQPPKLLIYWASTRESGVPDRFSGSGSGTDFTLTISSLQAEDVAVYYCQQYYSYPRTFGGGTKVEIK
notes: PTM-removed variant of 29D2D7-z19; VH is that of 29D2D7-z19
B2: 29D2D7-z19p2 (antibody, V domains shown)
VH: B1 VH
VL: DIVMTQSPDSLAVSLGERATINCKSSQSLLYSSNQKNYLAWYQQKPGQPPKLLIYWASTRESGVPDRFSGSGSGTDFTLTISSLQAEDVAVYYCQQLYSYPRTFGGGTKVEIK
notes: as for B1
B3: 29D2D7-z19p1 (antibody, V domains shown)
VH: B1 VH
VL: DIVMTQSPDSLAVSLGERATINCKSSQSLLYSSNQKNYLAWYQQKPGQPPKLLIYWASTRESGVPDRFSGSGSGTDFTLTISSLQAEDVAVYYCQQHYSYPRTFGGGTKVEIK
notes: PTM-removed variant of 29D2D7-z19 (VL CDR3 cysteine replaced)
B4: 29D2D7-z19p5 (antibody, V domains shown)
VH: B1 VH
VL: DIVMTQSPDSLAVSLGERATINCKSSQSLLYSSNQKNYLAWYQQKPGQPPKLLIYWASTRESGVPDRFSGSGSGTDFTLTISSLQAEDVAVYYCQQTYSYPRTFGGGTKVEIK
notes: as for B1
B5: 143H10E4-z6 (antibody, V domains shown)
VH: QVQLVQSGAEVKKPGSSVKVSCKASGSTFTDHTIHWVRQAPGQGLEWIGYIYPVYGYTQNNEKFKGRATITADKSTSTAYMELSSLRSEDTAVYYCARSRDSNPYYFDYWGQGTTVTVSS
VL: EIVLTQSPDFQSVTPKEKVTITCTVSSSISSSNLHWYQQKPDQSPKPWIYGTSNLASGVPSRFSGSGSGTDYSLTINSLEAEDAATYYCQQWSSYPFTFGQGTKLEIK
notes: Humanized, human IgG1 constant region; also called 143H10E4 HU-VH1-1 / HU-VL1-3
B6: 143H10E4-z3 (antibody, V domains shown)
VH: B5 VH with I48M, A68V
VL: B5 VL
notes: Humanized, human IgG1 constant region; also called 143H10E4 HU-VH1-0 / HU-VL1-3
B7: 143H10E4-z9 (antibody, V domains shown)
VH: B5 VH with S84N
VL: B5 VL
notes: Humanized, human IgG1 constant region; also called 143H10E4 HU-VH1-2 / HU-VL1-3
B8: 29H8D3-z12p3 (antibody, V domains shown)
VH: QVQLVQSGAEVKKPGASVKVSCKASGYTFTDHTIHWMRQRPGQGLEWIGYIYPRDGYTKYNEKFKDRATLTADTSTSTAYMELRSLRSDDTAVYYCARFYYGYWYFDVWGQGTTVTVSS
VL: DIVMTQSPLSLPVTPGEPASISCRSSKSLLRSNANTYLYWFLQKPGQSPQVLIYRMSNLASGVPDRFSGSGSGTDFTLKISRVEAEDVGVYYCMQHLEYPFTFGQGTKLEIK
notes: PTM-removed variant of 29H8D3-z12
B9: 29H8D3-z12p22 (antibody, V domains shown)
VH: B8 VH
VL: B8 VL with A34G, M94L
notes: PTM-removed variant of 29H8D3-z12; VH is that of 29H8D3-z12
B10: 29H8D3-z12p7 (antibody, V domains shown)
VH: B8 VH with D55E
VL: B8 VL with N35Q
notes: as for B8
B11: 29H8D3-z12p4 (antibody, V domains shown)
VH: B8 VH with D55E
VL: B8 VL
notes: as for B8

Positions count from the first letter of the chain named.

In one assay the target is T1, human CDH17, full length, expressed on cells (HEK293-hCDH17); AsPC-1, HCT-8, AGS, LoVo, KATO III, HT-29 tumor … (human, UniProt Q12864 23-832).
T1 construct: also called human CDH17 expressed on tumor cells
T1 sequence: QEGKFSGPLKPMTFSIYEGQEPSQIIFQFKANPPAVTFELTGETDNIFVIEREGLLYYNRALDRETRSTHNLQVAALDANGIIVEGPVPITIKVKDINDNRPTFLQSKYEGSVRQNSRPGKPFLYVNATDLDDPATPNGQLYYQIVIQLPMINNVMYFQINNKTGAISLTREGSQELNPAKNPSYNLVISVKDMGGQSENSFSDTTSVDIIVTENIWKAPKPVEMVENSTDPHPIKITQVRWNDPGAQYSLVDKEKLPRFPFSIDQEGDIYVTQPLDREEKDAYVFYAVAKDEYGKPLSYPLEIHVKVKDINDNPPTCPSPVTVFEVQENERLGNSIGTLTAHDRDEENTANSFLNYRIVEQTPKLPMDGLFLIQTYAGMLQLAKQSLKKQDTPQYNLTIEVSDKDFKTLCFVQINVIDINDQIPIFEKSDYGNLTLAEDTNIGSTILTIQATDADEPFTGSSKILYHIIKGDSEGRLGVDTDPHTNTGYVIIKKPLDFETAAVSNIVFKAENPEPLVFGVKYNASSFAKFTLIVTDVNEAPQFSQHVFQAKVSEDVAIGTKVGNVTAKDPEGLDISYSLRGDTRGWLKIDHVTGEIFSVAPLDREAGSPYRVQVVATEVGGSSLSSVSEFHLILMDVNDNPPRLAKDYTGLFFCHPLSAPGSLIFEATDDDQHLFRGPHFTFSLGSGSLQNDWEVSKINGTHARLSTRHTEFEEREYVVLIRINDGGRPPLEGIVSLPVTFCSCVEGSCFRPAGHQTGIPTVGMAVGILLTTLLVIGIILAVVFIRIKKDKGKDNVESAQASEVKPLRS
Nature of the assay: flow cytometry, HCT-8 cells.
B1: the binding result is “binds”. On the same count and under the same terms, for B2 the value was “binds”. With B3, the binding result is recorded as “binds”. Turning to B4, the binding result is “binds”.

B5: the binding result is “binds”. The same measure, in the same setting: for B6 the value was “binds”; for B7, “binds”; for B8, “binds”.

As for B9, the binding result is “binds”. For the molecule B10, the binding result is reported as “binds”.

For B11, the binding result is “binds”.

The target in a further assay is T2, hCDH17-his (full length extracellular domain of human CDH17, Q23-M787, his tag at the C-terminal) (human, UniProt Q12864 23-787).
T2 construct: Limits of the construct (UniProt Q12864, Q23-M787, C-terminal his tag); also called human CDH17-his protein; human CDH17 protein
T2 sequence: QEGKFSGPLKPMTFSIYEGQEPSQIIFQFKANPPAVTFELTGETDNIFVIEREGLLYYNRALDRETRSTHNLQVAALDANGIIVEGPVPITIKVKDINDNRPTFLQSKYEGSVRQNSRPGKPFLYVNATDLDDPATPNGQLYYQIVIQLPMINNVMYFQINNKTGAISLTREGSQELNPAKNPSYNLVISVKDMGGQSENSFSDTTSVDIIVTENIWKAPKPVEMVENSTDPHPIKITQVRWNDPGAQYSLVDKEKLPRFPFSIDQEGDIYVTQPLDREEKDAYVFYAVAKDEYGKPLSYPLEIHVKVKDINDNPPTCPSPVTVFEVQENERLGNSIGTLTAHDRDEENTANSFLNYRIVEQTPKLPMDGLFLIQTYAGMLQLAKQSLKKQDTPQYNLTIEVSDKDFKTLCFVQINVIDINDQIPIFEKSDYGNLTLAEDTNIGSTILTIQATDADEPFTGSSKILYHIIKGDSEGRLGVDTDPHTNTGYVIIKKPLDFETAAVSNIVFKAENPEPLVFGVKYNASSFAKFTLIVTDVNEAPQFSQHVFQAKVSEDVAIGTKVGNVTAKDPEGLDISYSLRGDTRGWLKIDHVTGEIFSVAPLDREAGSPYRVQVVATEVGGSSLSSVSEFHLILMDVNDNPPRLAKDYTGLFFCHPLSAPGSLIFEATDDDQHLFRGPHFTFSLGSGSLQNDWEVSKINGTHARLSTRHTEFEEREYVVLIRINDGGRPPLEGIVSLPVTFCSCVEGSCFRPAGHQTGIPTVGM
Nature of the assay: SPR (Biacore 8K), antibody captured on Protein A chip, hCDH17-his injected. (In general: Surface plasmon resonance follows binding to a sensor surface in real time, without labels.)
For the molecule B5, the binding result is “binds”. Still for that read-out and setting: the entry for B6 is “binds”; for B7 it is “binds”.

A further assay deals with T2, hCDH17-his (full length extracellular …). Nature of the assay: SPR (Biacore 8K), two doses, antibody captured on Protein A chip, hCDH17-his at 25 nM and 100 nM.
As to B1, the binding result is on record as “binds”. The same measure, in the same setting: the entry for B4 is “binds”; for B8 it is “binds”; for B9 it is “binds”. Same read-out and setting: the entry for B10 is “binds”. The same measure, in the same setting: the entry for B11 is “binds”.
